Patent US20240261333A1, “NOVEL TARGETS FOR ENHANCING ANTI-TUMOR IMMUNITY” (THE BROAD INSTITUTE, INC., priority 2021, published 2024)

Tests used:
Assay in all cases: co-IP with anti-FLAG, C-FLAG B3GNT2, mass spectrometry
[1] = molecular target: ARPC1B (human) (UniProt O15143)
[2] = molecular target: CALML5 (human) (UniProt Q9NZT1)
[3] = molecular target: CCT3 (human) (UniProt P49368)
[4] = molecular target: COPA (human) (UniProt P53621)
[5] = molecular target: CPT1A (human) (UniProt P50416)
[6] = molecular target: DHX9 (human) (UniProt Q08211)
[7] = molecular target: EMILIN1 (human) (UniProt Q9Y6C2)
[8] = molecular target: GBF1 (human) (UniProt Q92538)
[9] = molecular target: GEMIN4 (human) (UniProt P57678)
[10] = molecular target: GSN (human) (UniProt P06396)
[11] = molecular target: HNRNPH1 (human) (UniProt P31943)
[12] = molecular target: LUC7L3 (human) (UniProt O95232)
[13] = molecular target: MAP4 (human) (UniProt P27816)
[14] = molecular target: MMP14 (human) (UniProt P50281)
[15] = molecular target: P4HA2 (human) (UniProt O15460)
[16] = molecular target: PLOD1 (human) (UniProt Q02809)
[17] = molecular target: PPFIBP1 (human) (UniProt Q86W92)
[18] = molecular target: PURA (human) (UniProt Q00577)
[19] = molecular target: RACK1 (human) (UniProt P63244)
[20] = molecular target: RBM14 (human) (UniProt Q96PK6)
[21] = molecular target: RHOT2 (human) (UniProt Q8IXI1)
[22] = molecular target: RPL6 (human) (UniProt Q02878)
[23] = molecular target: RPL7 (human) (UniProt P18124)
[24] = molecular target: RPL8 (human) (UniProt P62917)
[25] = molecular target: RPS24 (human) (UniProt P62847)
[26] = molecular target: RPS26 (human) (UniProt P62854)
[27] = molecular target: RPS27A (human) (UniProt P62979)
[28] = molecular target: RUVBL2 (human) (UniProt Q9Y230)
[29] = molecular target: SERPINB3 (human) (UniProt P29508)
[30] = molecular target: SPARC (human) (UniProt P09486)
[31] = molecular target: SYNCRIP (human) (UniProt O60506)
[32] = molecular target: SYNM (human) (UniProt O15061)
[33] = molecular target: SYNPO (human) (UniProt Q8N3V7)
[34] = molecular target: TBL2 (human) (UniProt Q9Y4P3)
[35] = molecular target: TPM2 (human) (UniProt P07951)
[36] = molecular target: TPM3 (human) (UniProt P06753)
[37] = molecular target: TTC13 (human) (UniProt Q8NBP0)
[38] = molecular target: XPO1 (human) (UniProt O14980)
[39] = molecular target: XPOT (human) (UniProt O43592)

C-terminal FLAG tagged B3GNT2 (from UniProt Q9NY97 1-397) (enzyme)
5: co-IP/MS count, C-term flag [1] | co-IP mass spectrometry count [3] | co-IP mass spectrometry count [6] | co-IP mass spectrometry count [8] | co-IP mass spectrometry count [9] | co-IP mass spectrometry count [13] | co-IP mass spectrometry count [32] | co-IP mass spectrometry count [34] | co-IP mass spectrometry count [36]
9: co-IP mass spectrometry count [29]
3: co-IP mass spectrometry count [7] | co-IP mass spectrometry count [10] | co-IP/MS count, C-term flag [12] | co-IP mass spectrometry count [17] | co-IP/MS count, C-term flag [18] | co-IP mass spectrometry count [19]
8: co-IP/MS count, C-term flag [25]
13: co-IP mass spectrometry count [31]
20: co-IP/MS count, C-term flag [22]
7: co-IP mass spectrometry count [33]
11: co-IP mass spectrometry count [26]
15: co-IP/MS count, C-term flag [11] | co-IP mass spectrometry count [24]
4: co-IP mass spectrometry count [2] | co-IP/MS count, C-term flag [15] | co-IP/MS count, C-term flag [16] | co-IP/MS count, C-term flag [28] | co-IP/MS count, C-term flag [30] | co-IP/MS count, C-term flag [35] | co-IP/MS count, C-term flag [37]
27: co-IP mass spectrometry count [27]
21: co-IP mass spectrometry count [23]
2: co-IP/MS count, C-term flag [4] | co-IP/MS count, C-term flag [5] | co-IP/MS count, C-term flag [14] | co-IP/MS count, C-term flag [20] | co-IP mass spectrometry count [21] | co-IP/MS count, C-term flag [38] | co-IP/MS count, C-term flag [39]
